From article PMC8537613 (2021)

Target: m102.4
Experiment: ELISA

B1: NiV sG (domain or fragment)
chain: QNYTRSTDNQAVIKDALQGIQQQIKGLADKIGTEIGPKVSLIDTSSTITIPANIGLLGSKISQSTASINENVNEKCKFTLPPLKIHECNISCPNPLPFREYRPQTEGVSNLVGLPNNICLQKTSNQILKPKLISYTLPVVGQSGTCITDPLLAMDEGYFAYSHLERIGSCSRGVSKQRIIGVGEVLDRGDEVPSLFMTNVWTPPNPNTVYHCSAVYNNEFYYVLCAVSTVGDPILNSTYWSGSLMMTRLAVKPKSNGGGYNQHQLALRSIEKGRYDKVMPYGPSGIKQGDTLYFPAVGFLVRTEFKYNDSNCPITKCQYSKPENCRLSMGIRPNSHYILRSGLLKYNLSDGENPKVVFIEISDQRLSIGSPSKIYDSLGQPVFYQASFSWDTMIKFGDVLTVNPLVVNWRNNTVISRPGQSQCPRFNTCPEICWEGVYNDAFLIDRINWISAGVFLDSNQTAENPVFTVFKDNEILYRAQLASEDTNAQKTITNCFLLKNKIWCISLVEIYDTGDNVIRPKLFAVKIPEQCT
Kd: 0.15 nM
